# Assay results from patent US20170119790A1, “Agents, Uses and Methods” (CYTOGUIDE A/S, priority 2009, published 2017).
# B1: MAC2-158: anti-human CD163 murine mAb, binds SRCR domain 1, IQ Products; VH SEQ ID NO: 1, VL SEQ ID NO: 2 (antibody, V domains shown)
# VH: DVQLQESGPGLVKPSQSLSLTCTVTGYSITSDYAWNWIRQFPGNKLEWMGYITYSGITNYNPSLKSQISITRDTSKNQFFLQLNSVTTEDTATYYCVSGTYYFDYWGQGTTLTVSS
# VL: SVVMTQTPKSLLISIGDRVTITCKASQSVSSDVAWFQQKPGQSPKPLIYYASNRYTGVPDRFTGSGYGTDFTFTISSVQAEDLAVYFCGQDYTSPRTFGGGTKLEIKRA
# modifications: Mac2-158 VH; Mac2-158 VL
# Assays:
# [1] = target: CD163 (Homo sapiens, UniProt Q86VB7); experiment: Competition of binding to Mac2-158 epitope (SPR on Mac2-158 saturated CD163 chip); settings: 2 mM free calcium buffer, mAb 5 μg/ml
# CD163, sequence (Q86VB7 42-1156): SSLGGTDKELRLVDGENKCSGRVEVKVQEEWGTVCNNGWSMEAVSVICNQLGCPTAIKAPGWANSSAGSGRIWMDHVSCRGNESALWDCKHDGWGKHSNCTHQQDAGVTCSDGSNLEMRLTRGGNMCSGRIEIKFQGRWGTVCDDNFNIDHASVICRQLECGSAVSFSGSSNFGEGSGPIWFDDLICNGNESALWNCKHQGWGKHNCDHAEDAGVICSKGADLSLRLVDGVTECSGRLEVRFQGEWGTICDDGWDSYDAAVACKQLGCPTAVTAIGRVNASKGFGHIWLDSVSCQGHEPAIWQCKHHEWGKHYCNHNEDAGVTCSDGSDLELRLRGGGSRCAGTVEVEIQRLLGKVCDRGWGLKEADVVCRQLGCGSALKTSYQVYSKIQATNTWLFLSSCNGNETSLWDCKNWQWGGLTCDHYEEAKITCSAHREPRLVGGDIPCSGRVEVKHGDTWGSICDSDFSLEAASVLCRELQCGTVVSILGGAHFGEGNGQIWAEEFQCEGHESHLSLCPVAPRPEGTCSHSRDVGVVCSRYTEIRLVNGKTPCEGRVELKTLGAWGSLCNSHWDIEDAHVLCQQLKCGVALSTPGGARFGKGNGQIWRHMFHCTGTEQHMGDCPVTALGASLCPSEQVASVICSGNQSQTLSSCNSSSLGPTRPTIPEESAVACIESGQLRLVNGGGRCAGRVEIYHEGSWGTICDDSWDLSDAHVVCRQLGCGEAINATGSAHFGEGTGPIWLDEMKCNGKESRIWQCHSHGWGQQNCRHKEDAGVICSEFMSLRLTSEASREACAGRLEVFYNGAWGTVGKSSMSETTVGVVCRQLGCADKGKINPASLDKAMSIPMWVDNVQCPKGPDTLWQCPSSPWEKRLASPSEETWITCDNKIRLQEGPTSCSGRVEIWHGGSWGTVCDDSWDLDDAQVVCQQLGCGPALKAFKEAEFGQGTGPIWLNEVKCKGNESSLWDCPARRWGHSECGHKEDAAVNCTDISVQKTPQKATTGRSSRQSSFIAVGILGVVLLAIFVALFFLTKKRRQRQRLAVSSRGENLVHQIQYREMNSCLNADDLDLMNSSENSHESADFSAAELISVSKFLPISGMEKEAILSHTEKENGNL
# Procedure: To evaluate if there is competition in the binding of a range of mAbs to CD163 we first saturated the CD163-chip with Mac2-158 by injecting 50 μL of 50 μg/ml Mac2-158 and subsequently injecting relevant mAbs in 5 μg/ml. The binding buffer was CaHBS 10 mM Hepes, 150 mM NaCl, 3.0 mM CaCl2, 1.0 mM EGTA, and 0.005% Tween 20, pH 7.4.
# [2] = target: T1, human CD163 wt (Homo sapiens, UniProt Q86VB7); experiment: Western blotting of human CD163 and knock out mutants; format: binding
# T1 construct: a pcDNA5-FRT-humanCD163 plasmid harboring the full length human CD163 cDNA; expressed in transfected cells; host or cells: HEK 293, transient
# T1 sequence (Q86VB7 42-1156): as above
# Procedure: Each cell pellet was added 1 ml lysis buffer (10 mM Tris pH 8, 140 mM NaCl, 15 mM MgSO4, 1% Triton X-100) and incubated for 15 min at 4 °C with rotation. After centrifugation for 30 min at 6000 rpm the supernatants were sterile filtered.
# 90 μl of each of the supernatants were added 30 μl of 4×LDS sample buffer. 3×20 μl samples of each supernatant and 8 μl SeeBlue plus2 prestained marker were loaded on NuPage 4-12% Bis-Tris-Gels (Invitrogen, Taastrup, Denmark) and the SDS-PAGEs were run with MOPS running buffer according to instructions of the manufacturer (200 V constant for 50 min). Blotting to PVDF membranes (Invitrogen, Taastrup, Denmark) was done on an iBLOT device according to instructions of the manufacturer. After blotting the membranes were washed briefly in 1×PBS 0.1% Tween and blocked for 30 min in 1×PBS 2% Tween at room temperature with shaking. After blocking the membranes were washed 3×5 min in 1×PBS 0.1% Tween and incubated 1 hour with: (1) 10 ml 1 μg/ml polyclonal rabbit anti-human CD163; (2) 10 ml 1 μg/ml Mac2-158; (3) 10 ml 1:500 KN2/NRY-HRP all diluted in 1×PBS 0.1% Tween. The membranes were washed with 3×5 min 1×PBS 0.1% Tween again and incubated with: (1) 10 ml Goat anti-rabbit-HRP 1:1000 (AbD Serotec, Oxford, UK); or (2) 10 ml Goat anti-mouse-HRP 1:1000 (Dako, Glostrup, Denmark) for 1 hour. […]
molecule,measurement,setting,value
B1,binding to CD163-Fc saturated with Mac2-158,[1],not able to bind
same,binding in western blot,[2],bound
